# Assay results: publication PMC4509971
# Biological target: RNH domain of HIV-1 reverse transcriptase (RT residues 427-560) with E438N and T477A (HIV-1)
# Test: SEC-MALS
substance,measurement,value
RNH domain of HIV-1 reverse transcriptase (RT residues 427-560) with E438N and T477A (domain or fragment),stoichiometry N,2
